Test results: paper PMC2994726 (PLoS ONE, 2010)

Tests used:
[1] = target: FLAG-tagged rat AT1a receptor DRY/AAY, full length (rat) (UniProt P25095); assay: radioligand binding; whole-cell heterologous competition on transfected COS-7 cells: 1 nM 3H-Ang II tracer and increasing unlabeled SII Ang II, 3 h at 4°C; pKi calculated from Ang II KD values of experiments run in parallel
[2] = target: FLAG-tagged rat AT1a receptor DRY/AAY truncated after serine 331 (DRY/AAY 331Δ) (rat) (UniProt P25095); assay: as above
[3] = target: Luc-tagged rat AT1a receptor DRY/AAY, full length (rat) (UniProt P25095); assay: FRET or BRET; BRET2 in live HEK293 cells co-transfected with Luc-tagged rAT1aR and GFP2-β-arrestin2; dose-response to SII Ang II, read 15 min after agonist addition
[4] = target: Luc-tagged rat AT1a receptor DRY/AAY truncated after serine 331 (DRY/AAY 331Δ) (rat) (UniProt P25095); assay: as above
[5] = target: Luc-tagged rat AT1a receptor DRY/AAY, full length (rat) (UniProt P25095); assay: FRET or BRET; BRET2 in live HEK293 cells co-transfected with Luc-tagged rAT1aR and GFP2-β-arrestin2; dose-response to Ang II, read 15 min after agonist addition
[6] = target: Luc-tagged rat AT1a receptor DRY/AAY truncated after serine 331 (DRY/AAY 331Δ) (rat) (UniProt P25095); assay: as above
[7] = target: T1, FLAG-tagged rat AT1a receptor WT truncated after serine 331 (WT 331Δ) (rat, UniProt P25095 1-331); assay: radioligand binding; whole-cell heterologous competition on transfected COS-7 cells: 1 nM 3H-Ang II tracer and increasing unlabeled SII Ang II, 3 h at 4°C; pKi calculated from Ang II KD values of experiments run in parallel; conditions: one partner purified
T1 construct: source: COS-7, transiently transfected, on whole cells; not shown: FLAG, N-terminal, kept
T1 sequence (looked up): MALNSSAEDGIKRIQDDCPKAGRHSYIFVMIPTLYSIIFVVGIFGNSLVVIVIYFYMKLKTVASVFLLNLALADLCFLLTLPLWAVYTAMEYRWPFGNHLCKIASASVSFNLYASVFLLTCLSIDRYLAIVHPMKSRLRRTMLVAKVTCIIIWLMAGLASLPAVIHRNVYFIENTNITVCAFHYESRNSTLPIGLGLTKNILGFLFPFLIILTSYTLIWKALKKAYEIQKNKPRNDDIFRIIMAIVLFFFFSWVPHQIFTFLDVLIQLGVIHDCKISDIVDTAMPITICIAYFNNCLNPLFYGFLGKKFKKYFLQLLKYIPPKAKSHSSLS

[8] = target: T2, FLAG-tagged rat AT1a receptor (rAT1aR), WT, full length (rat, UniProt P25095 1-359); assay: as above; conditions: one partner purified
T2 construct: Angiotensin II type 1a receptor (AT1aR), rat, full length; also called AT1R; Angiotensin II type 1 receptor; source: COS-7, transiently transfected, on whole cells; not shown: FLAG, N-terminal, kept
T2 sequence (looked up): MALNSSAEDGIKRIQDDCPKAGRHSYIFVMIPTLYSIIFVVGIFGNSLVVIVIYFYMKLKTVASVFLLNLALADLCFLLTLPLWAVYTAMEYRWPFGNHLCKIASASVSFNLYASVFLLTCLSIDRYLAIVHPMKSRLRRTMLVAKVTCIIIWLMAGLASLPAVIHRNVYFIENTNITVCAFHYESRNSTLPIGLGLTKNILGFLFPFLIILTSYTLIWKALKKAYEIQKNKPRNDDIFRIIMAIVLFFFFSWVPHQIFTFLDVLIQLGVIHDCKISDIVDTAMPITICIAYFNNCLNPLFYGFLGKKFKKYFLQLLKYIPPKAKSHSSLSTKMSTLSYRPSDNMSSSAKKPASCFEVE

## Sar1-Ile4-Ile8 (SII) Ang II (peptide)
[1]
  pKi: 6.1
[2]
  pKi: 6.2

## GFP2-tagged β-arrestin2 (from UniProt P32121 1-409) (natural protein)
[3]
  pEC50 of SII Ang II for induced recruitment (BRET2): 7.5
[4]
  pEC50 of SII Ang II for induced recruitment (BRET2, from normalized curves): 7
[5]
  pEC50 of Ang II for induced recruitment (BRET2): 8.2
[6]
  pEC50 of Ang II for induced recruitment (BRET2): 8.2

## GRVIIHPI (sarcosine at position 1 (Sar1)) [Sar1-Ile4-Ile8 (SII) Ang II]
[7]
  pKi: 6
[8]
  pKi: 5.9
